These are literature values, as cited in publication PMC4799752.

The Kd is the concentration at which binding is half-saturated.

The data set deals with transferrin receptor 2 (Homo sapiens) (UniProt Q9UP52).
Chain of UniProt Q9UP52 (Q9UP52 whole entry): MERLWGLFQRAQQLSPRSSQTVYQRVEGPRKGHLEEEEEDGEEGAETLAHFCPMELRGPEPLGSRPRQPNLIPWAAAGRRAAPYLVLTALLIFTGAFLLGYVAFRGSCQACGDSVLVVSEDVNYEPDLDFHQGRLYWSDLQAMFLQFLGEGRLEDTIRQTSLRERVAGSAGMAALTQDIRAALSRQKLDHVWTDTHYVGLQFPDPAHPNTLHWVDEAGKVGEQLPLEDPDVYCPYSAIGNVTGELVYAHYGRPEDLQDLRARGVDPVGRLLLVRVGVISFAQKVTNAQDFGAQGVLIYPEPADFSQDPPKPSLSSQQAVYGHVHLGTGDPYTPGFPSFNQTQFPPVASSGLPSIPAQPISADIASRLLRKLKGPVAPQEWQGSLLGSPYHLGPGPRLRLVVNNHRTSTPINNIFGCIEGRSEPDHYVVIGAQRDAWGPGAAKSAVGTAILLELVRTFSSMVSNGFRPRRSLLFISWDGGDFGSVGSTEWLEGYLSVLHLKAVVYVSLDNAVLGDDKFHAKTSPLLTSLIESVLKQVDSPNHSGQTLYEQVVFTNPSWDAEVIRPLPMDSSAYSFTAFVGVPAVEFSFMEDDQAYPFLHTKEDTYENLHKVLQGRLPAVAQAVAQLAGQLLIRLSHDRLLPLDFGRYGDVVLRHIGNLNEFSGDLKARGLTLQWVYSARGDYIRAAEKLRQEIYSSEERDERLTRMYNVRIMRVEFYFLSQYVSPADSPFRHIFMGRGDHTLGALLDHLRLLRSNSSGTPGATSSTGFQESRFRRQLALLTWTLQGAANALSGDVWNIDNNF

Chain of transferrin (P02787 20-698): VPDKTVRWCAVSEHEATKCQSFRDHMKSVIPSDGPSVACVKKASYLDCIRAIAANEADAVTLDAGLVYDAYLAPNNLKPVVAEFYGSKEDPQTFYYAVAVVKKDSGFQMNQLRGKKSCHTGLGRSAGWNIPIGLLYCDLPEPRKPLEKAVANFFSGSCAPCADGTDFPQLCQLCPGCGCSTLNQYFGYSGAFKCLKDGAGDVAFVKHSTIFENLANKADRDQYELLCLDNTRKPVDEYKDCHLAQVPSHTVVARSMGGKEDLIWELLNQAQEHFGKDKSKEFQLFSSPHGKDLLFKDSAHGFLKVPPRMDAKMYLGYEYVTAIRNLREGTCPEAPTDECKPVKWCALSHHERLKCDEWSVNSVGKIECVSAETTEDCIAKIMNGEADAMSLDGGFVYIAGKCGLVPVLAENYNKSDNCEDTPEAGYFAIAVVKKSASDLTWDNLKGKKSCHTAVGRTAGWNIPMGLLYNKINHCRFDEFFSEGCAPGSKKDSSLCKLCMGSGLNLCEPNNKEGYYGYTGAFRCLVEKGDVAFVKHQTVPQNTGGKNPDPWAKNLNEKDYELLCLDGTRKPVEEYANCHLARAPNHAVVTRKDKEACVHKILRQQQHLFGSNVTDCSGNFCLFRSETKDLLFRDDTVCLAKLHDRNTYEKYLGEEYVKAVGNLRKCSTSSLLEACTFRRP

For transferrin (from UniProt P02787), the Kd is 30 nM.
